Consider one molecule from patent US20160237154A1 (SORRENTO THERAPEUTICS, published 2016).

One test has as its target T1, mouse CTLA4/His (mouse, UniProt P09793 36-162, limits assumed).
T1 construct: also called murine CTLA4; not shown: His tag
The test is described as follows: ELISA, CTLA4/His captured on Ni-NTA plate, antibody ~1 ug/mL, anti-human Fc-HRP. Here is the method: Using a 96-well Ni-NTA plate recombinant human CTLA4/His, cynomolgus CTLA4/His or mouse CTLA4/His @ 1 μg/mL were captured. The plate was incubated for 30 min at room temperature, washed 3 times with PBS-Tween (PBST), then anti-CTLA4 antibodies (˜1 μg/mL) diluted in casein were added and incubated for 30 min with shaking. The plate was washed 3 times with PBST, horseradish peroxidase (HRP)-conjugated goat anti-human Fc (1:500 in casein) was added, then 3,3′,5,5′-Tetramethylbenzidine (TMB) was added as substrate and developed about 5 min. 2M H₂SO₄ was used to stop the reaction and the OD was read at 450 nm.
For orientation: In an ELISA, binding on a coated surface is turned into a signal by an enzyme label.

Test [1] has as its target T2, Recombinant human CTLA4/His (human, UniProt P16410 36-162, limits assumed).
T2 construct: not shown: His tag
T2 sequence (looked up): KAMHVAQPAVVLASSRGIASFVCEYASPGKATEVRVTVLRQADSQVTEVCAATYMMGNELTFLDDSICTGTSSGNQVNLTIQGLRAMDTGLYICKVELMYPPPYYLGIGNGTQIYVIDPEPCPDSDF
The test can be described thus: SPR (BiaCore), antibody captured on anti-human Fc, His-tagged analyte, 1:1 model. As for the experimental part:
The affinity of antibody CT1E1 for human CTLA4 was also determined using surface plasmon resonance (BiaCore). Anti-human Fc antibody (GE, BR-1008-39) was immobilized on CM5 sensor chip to approximately 1000 RU using standard NHS/EDC coupling methodology. Antibodies (about 10 μg/ml) were captured for 60 s at a flow rate 10 ul/min Recombinant human […] was serially diluted in running buffer (HBS-EP). All measurements were conducted in HBS-EP buffer with a flow rate of 30 μL/min. The antibody was diluted appropriately to obtain a series of concentrations. A 1:1 (Langmuir) binding model was used to fit the data. The Chi2 (chi-squared) value was used as a guideline for fitting quality. Results from the affinity studies are provided below in Table 2.
For orientation: In SPR one partner is held on a chip, and binding of the other changes the refractive index at the surface.

The target in test [2] is T3, recombinant human CTLA4 (as human Fc fusion) (human, UniProt P16410 37-162, limits assumed).
T3 construct: not shown: human Fc
T3 sequence (looked up): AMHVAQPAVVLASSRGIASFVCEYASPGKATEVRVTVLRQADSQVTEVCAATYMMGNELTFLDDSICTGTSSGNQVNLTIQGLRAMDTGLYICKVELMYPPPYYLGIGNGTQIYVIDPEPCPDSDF
The test can be described thus: blocking ELISA: serially diluted IgG pre-mixed with recombinant human CTLA4-Fc, transferred to a Ni-NTA plate coated with His-tagged human CD80 (the blocked ligand); HRP anti-human Fc, OD 450. As for the experimental part: (§1) Assays were performed to determine the ability of antibody CT1E1 to inhibit CD80 and CD86 activity. A 96-well Ni-NTA plate was coated with 1 μg/mL recombinant human CD80 or CD86 with hexahistidine tag at room temperature for 1 h. Pre-mixed 30 μL serial 3-fold diluted IgGs (started from 25 μg/mL) and 30 μL of […] recombinant human CTLA4 (as human Fc fusion) and incubated the mixtures for 30 minutes, then washed the plate with PBS-Tween (PBST) 3 times. The mixtures were transferred 50 μL to the ELISA plate and incubated 30 min with shaking. The plate was washed 3 times with PBST, then horseradish peroxidase (HRP)-conjugated goat anti-human Fc (1:500 in casein) was added, then 3,3′,5,5′-Tetramethylbenzidine (TMB) was added as substrate and developed 30 min. 2M H₂SO₄ was used to stop the reaction and the OD was read at 450 nm.

Test [3] concerns the target T3, recombinant human CTLA4 (as human Fc …). The test can be described thus: blocking ELISA: serially diluted IgG pre-mixed with recombinant human CTLA4-Fc, transferred to a Ni-NTA plate coated with His-tagged human CD86 (the blocked ligand); HRP anti-human Fc, OD 450. Here is the method: as §1

The Kd is the free concentration of one partner at which half of the binding sites on the other are occupied at equilibrium, for simple one-to-one binding. One may read the koff as a measure of how fast the partners let go of each other. By kon is commonly meant a measure of how fast the partners come together. What is called IC50 is the point on the concentration scale where inhibition reaches its midpoint.

B1: CT1E1 (antibody, V domains shown)
VH: EVQLVESGGGLVQPGRSLRLSCRGSNFNFDDLAISWVRQAPGKGLEWLGFVRSKAYGETTDYVASVKGRFTISRDDSKFIAWLQMDSLKTDDTAVYYCTTFNYWGQGTLVTVSS
VL: QPVLTQPPSVSVAPGKTARISCGGNNIASEAVHWYQKKPGQAPVLVIYYDSDRPSGIPERFSGSNSGNTATLRISRVDAGDEADYYCQVWDRTTDQPVFGGGTKLTVL
notes: also called human anti-CTLA4 antibody CT1E1
Regarding B1, in the test with mouse CTLA4/His, the binding result is listed as “binds”. In test [1], the Kd worked out at 1.81 nM, the koff came out at 0.000242 s⁻¹ and the kon came to 133000 M⁻¹ s⁻¹. Moreover, the half-inhibitory concentration (IC50) in test [2] came to 0.313 nM. Further, the IC50 in test [3] stood at 0.329 nM.
